Data reported in publication PMC7801428 (Nature Communications, 2021).

Molecular target: SARS-CoV-2 RBD (residues V320 to G550, strain Wuhan-Hu-1), C-terminal His tag (SARS-CoV-2, UniProt P0DTC2)
Test: BLI
Conditions: both partners purified

B1: human-mouse chimeric antibody 3C1 (c3C1) (antibody, V domains shown)
VH: EVQLQESGPSLVKPSQTLSLTCSVTGDSITNGYWNWIRKFPGNKLEYMGYISYSGSTYYSPSLKSRISITRDTSKNQHYLQLNSVTSEDTATYYCASDYHGSKYYFDYWGQGTTLTVSS
VL: DIVMTQSHKFMSTSVGHRVSITCKASQDVGNDVAWYQQKPGQSPKLLIYWASTRHTGVPDRFTGSGSGTDFTLTISNVQSEDLADYFCQQYNRYPYTFGGGTKLEIK
notes: also called chimeric MAb c3C1
Kd: < 1 pM
